Laboratory results: the supplement of paper PMC5998384

Columns and labels:
HeLa Kyoto [1] = experiment: solubility in G1/S (NP-40 vs SDS abundance) (log2 ratio); higher = more soluble; conditions: cell cycle stage: G1/S
HeLa Kyoto [2] = experiment: solubility change mitosis vs G1/S (difference of NP-40 vs SDS log2 ratios) (log2 ratio difference); higher = more soluble in mitosis
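Wherever solubility change mitosis vs G1/S (difference of NP-40 vs SDS log2 ratios) is given: synchronized HeLa Kyoto cells (double thymidine block for G1/S, nocodazole release for mitosis), protein amounts in NP-40 versus SDS lysates quantified by mass spectrometry, three biological replicates.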
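Wherever solubility in G1/S (NP-40 vs SDS abundance) is given: HeLa Kyoto cells arrested at G1/S by double thymidine block, proteins quantified by TMT10plex mass spectrometry in mild NP-40 versus SDS extracts, three biological replicates.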

MGDPGSEIIESVPPAGPEASESTTDENEDDIQFVSEGPLRPVLEYIDLVSSDDEEPSTSYTDENIKRKDHIDYQKDKVALTLARLARHVEVEKQQKEEKNRAFREKIDFQHAHGLQELEFIRGHSDTEAARLCVDQWLKMPGLKTGTINCGTKSSFRRGGHTWVSGKPILCPIMHCNKEFDNGHLLLGHLKRFDHSPCDPTITLHGPFFSSFACVVCYKKFVTQQQYRDHLFDKEATDDGHNNNLLPQIIQCFACPNCFLLFSRKEECSKHMSGKNHFHQSFKLGDNKGIAHPISFPSFAKKLLISLCKDVPFQVKCVACHKTLRSHMELTAHFRVHCRNAGPVAVAEKSITQVAEKFILRGYCPDCNQVFVDETSTQNHKQNSGHKVRVINSVEESVLLYCHSSEGNKDPSSDLHLLLDQSKFSSLKRTMSIKESSSLECIAIPKKKMNLKDKSHEGVACVQKEKSVVKTWFCECNQRFPSEDAVEKHVFSANTMGYKCVVCGKVCDDSGVIRLHMSRIHGGAHLNNFLFWCRTCKKELTRKDTIMAHVTEFHNGHRYFYEMDEVEGETLPSSSTTLDNLTANKPSSAITVIDHSPANSSPRGKWQCRICEDMFDSQEYVKQHCMSLASHKFHRYSCAHCRKPFHKIETLYRHCQDEHDNEIKIKYFCGLCDLIFNVEEAFLSHYEEHHSIDYVFVSEKTETSIKTEDDFPVIETSNQLTCGCRESYICKVNRKEDYSRCLQIMLDKGKLWFRCSLCSATAQNLTDMNTHIHQVHKEKSDEEEQQYVIKCGTCTKAFHDPESAQQHFHRKHCFLQKPSVAHFGSEKSNLYKFTASASHTERKLKQAINYSKSLDMEKGVENDLSYQNIEEEIVELPDLDYLRTMTHIVFVDFDNWSNFFGHLPGHLNQGTFIWGFQGGNTNWKPPLNCKIYNYLNRIGCFFLHPRCSKRKDAADFAICMHAGRLDEQLPKQIPFTILSGDQGFLELENQFKKTQRPAHILNPHHLEGDMMCALLNSISDTTKECDSDDNMGAKNTSIGEEFISTEDVELEEAIRRSLEEM [ZNF451]
solubility in G1/S (log2) (HeLa Kyoto [1]): -0.657
solubility change mitosis (log2) (HeLa Kyoto [2]): -0.197

MGDWMTVTDPGLSSESKTISQYTSETKMSPSSLYSQQVLCSSIPLSKNVHSFFSAFCTEDNIEQSISYLDQELTTFGFPSLYEESKGKETKRELNIVAVLNCMNELLVLQRKNLLAQENVETQNLKLGSDMDHLQSCYSKLKEQLETSRREMIGLQERDRQLQCKNRNLHQLLKNEKDEVQKLQNIIASRATQYNHDMKRKEREYNKLKERLHQLVMNKKDKKIAMDILNYVGRADGKRGSWRTGKTEARNEDEMYKILLNDYEYRQKQILMENAELKKVLQQMKKEMISLLSPQKKKPRERVDDSTGTVISDVEEDAGELSRESMWDLSCETVREQLTNSIRKQWRILKSHVEKLDNQVSKVHLEGFNDEDVISRQDHEQETEKLELEIQQCKEMIKTQQQLLQQQLATAYDDDTTSLLRDCYLLEEKERLKEEWSLFKEQKKNFERERRSFTEAAIRLGLERKAFEEERASWLKQQFLNMTTFDHQNSENVKLFSAFSGSSDWDNLIVHSRQPQKKPHSVSNGSPVCMSKLTKSLPASPSTSDFCQTRSCISEHSSINVLNITAEEIKPNQVGGECTNQKWSVASRPGSQEGCYSGCSLSYTNSHVEKDDLP [SSX2IP]
solubility in G1/S (log2) (HeLa Kyoto [1]): -0.387
solubility change mitosis (log2) (HeLa Kyoto [2]): 0.187

MGLKAAQKTLFPLRSIDDVVRLFAAELGREEPDLVLLSLVLGFVEHFLAVNRVIPTNVPELTFQPSPAPDPPGGLTYFPVADLSIIAALYARFTAQIRGAVDLSLYPREGGVSSRELVKKVSDVIWNSLSRSYFKDRAHIQSLFSFITGTKLDSSGVAFAVVGACQALGLRDVHLALSEDHAWVVFGPNGEQTAEVTWHGKGNEDRRGQTVNAGVAERSWLYLKGSYMRCDRKMEVAFMVCAINPSIDLHTDSLELLQLQQKLLWLLYDLGHLERYPMALGNLADLEELEPTPGRPDPLTLYHKGIASAKTYYRDEHIYPYMYLAGYHCRNRNVREALQAWADTATVIQDYNYCREDEEIYKEFFEVANDVIPNLLKEAASLLEAGEERPGEQSQGTQSQGSALQDPECFAHLLRFYDGICKWEEGSPTPVLHVGWATFLVQSLGRFEGQVRQKVRIVSREAEAAEAEEPWGEEAREGRRRGPRRESKPEEPPPPKKPALDKGLGTGQGAVSGPPRKPPGTVAGTARGPEGGSTAQVPAPTASPPPEGPVLTFQSEKMKGMKELLVATKINSSAIKLQLTAQSQVQMKKQKVSTPSDYTLSFLKRQRKGL [MEN1]
solubility in G1/S (log2) (HeLa Kyoto [1]): -0.472
solubility change mitosis (log2) (HeLa Kyoto [2]): 0.197

MGNIFGNLLKSLIGKKEMRILMVGLDAAGKTTILYKLKLGEIVTTIPTIGFNVETVEYKNISFTVWDVGGQDKIRPLWRHYFQNTQGLIFVVDSNDRERVNEAREELMRMLAEDELRDAVLLVFANKQDLPNAMNAAEITDKLGLHSLRHRNWYIQATCATSGDGLYEGLDWLANQLKNKK [ARF3]
solubility in G1/S (log2) (HeLa Kyoto [1]): -0.169
solubility change mitosis (log2) (HeLa Kyoto [2]): -0.299

MGPLRESKKEHRVQHHDKEISRSRIPRLILRPHMPQQQHKVSPASESPFSEEESREFNPSSSGRSARTVSSNSFCSDDTGCPSSQSVSPVKTPSDAGNSPIGFCPGSDEGFTRKKCTIGMVGEGSIQSSRYKKESKSGLVKPGSEADFSSSSSTGSISAPEVHMSTAGSKRSSSSRNRGPHGRSNGASSHKPGSSPSSPREKDLLSMLCRNQLSPVNIHPSYAPSSPSSSNSGSYKGSDCSPIMRRSGRYMSCGENHGVRPPNPEQYLTPLQQKEVTVRHLKTKLKESERRLHERESEIVELKSQLARMREDWIEEECHRVEAQLALKEARKEIKQLKQVIETMRSSLADKDKGIQKYFVDINIQNKKLESLLQSMEMAHSGSLRDELCLDFPCDSPEKSLTLNPPLDTMADGLSLEEQVTGEGADRELLVGDSIANSTDLFDEIVTATTTESGDLELVHSTPGANVLELLPIVMGQEEGSVVVERAVQTDVVPYSPAISELIQSVLQKLQDPCPSSLASPDESEPDSMESFPESLSALVVDLTPRNPNSAILLSPVETPYANVDAEVHANRLMRELDFAACVEERLDGVIPLARGGVVRQYWSSSFLVDLLAVAAPVVPTVLWAFSTQRGGTDPVYNIGALLRGCCVVALHSLRRTAFRIKT [SYBU]
solubility in G1/S (log2) (HeLa Kyoto [1]): -0.253
solubility change mitosis (log2) (HeLa Kyoto [2]): 0.0944

MGSELIGRLAPRLGLAEPDMLRKAEEYLRLSRVKCVGLSARTTETSSAVMCLDLAASWMKCPLDRAYLIKLSGLNKETYQSCLKSFECLLGLNSNIGIRDLAVQFSCIEAVNMASKILKSYESSLPQTQQVDLDLSRPLFTSAALLSACKILKLKVDKNKMVATSGVKKAIFDRLCKQLEKIGQQVDREPGDVATPPRKRKKIVVEAPAKEMEKVEEMPHKPQKDEDLTQDYEEWKRKILENAASAQKATAE [ORC6]
solubility in G1/S (log2) (HeLa Kyoto [1]): 0.47
solubility change mitosis (log2) (HeLa Kyoto [2]): -0.389

MGSKERFHWQSHNVKQSGVDDMVLLPQITEDAIAANLRKRFMDDYIFTYIGSVLISVNPFKQMPYFTDREIDLYQGAAQYENPPHIYALTDNMYRNMLIDCENQCVIISGESGAGKTVAAKYIMGYISKVSGGGEKVQHVKDIILQSNPLLEAFGNAKTVRNNNSSRFGKYFEIQFSRGGEPDGGKISNFLLEKSRVVMQNENERNFHIYYQLLEGASQEQRQNLGLMTPDYYYYLNQSDTYQVDGTDDRSDFGETLSAMQVIGIPPSIQQLVLQLVAGILHLGNISFCEDGNYARVESVDLLAFPAYLLGIDSGRLQEKLTSRKMDSRWGGRSESINVTLNVEQAAYTRDALAKGLYARLFDFLVEAINRAMQKPQEEYSIGVLDIYGFEIFQKNGFEQFCINFVNEKLQQIFIELTLKAEQEEYVQEGIRWTPIQYFNNKVVCDLIENKLSPPGIMSVLDDVCATMHATGGGADQTLLQKLQAAVGTHEHFNSWSAGFVIHHYAGKVSYDVSGFCERNRDVLFSDLIELMQTSEQAFLRMLFPEKLDGDKKGRPSTAGSKIKKQANDLVATLMRCTPHYIRCIKPNETKRPRDWEENRVKHQVEYLGLKENIRVRRAGFAYRRQFAKFLQRYAILTPETWPRWRGDERQGVQHLLRAVNMEPDQYQMGSTKVFVKNPESLFLLEEVRERKFDGFARTIQKAWRRHVAVRKYEEMREEASNILLNKKERRRNSINRNFVGDYLGLEERPELRQFLGKRERVDFADSVTKYDRRFKPIKRDLILTPKCVYVIGREKVKKGPEKGQVCEVLKKKVDIQALRGVSLSTRQDDFFILQEDAADSFLESVFKTEFVSLLCKRFEEATRRPLPLTFSDTLQFRVKKEGWGGGGTRSVTFSRGFGDLAVLKVGGRTLTVSVGDGLPKSSKPTRKGMAKGKPRRSSQAPTRAAPAPPRGMDRNGVPPSARGGPLPLEIMSGGGTHRPPRGPPSTSLGASRRPRARPPSEHNTEFLNVPDQGMAGMQRKRSVGQRPVPGVGRPKPQPRTHGPRCRALYQYVGQDVDELSFNVNEVIEILMEDPSGWWKGRLHGQEGLFPGNYVEKI [MYO1F]
solubility in G1/S (log2) (HeLa Kyoto [1]): -0.1
solubility change mitosis (log2) (HeLa Kyoto [2]): -0.173

MGSQHSAAARPSSCRRKQEDDRDGLLAEREQEEAIAQFPYVEFTGRDSITCLTCQGTGYIPTEQVNELVALIPHSDQRLRPQRTKQYVLLSILLCLLASGLVVFFLFPHSVLVDDDGIKVVKVTFNKQDSLVILTIMATLKIRNSNFYTVAVTSLSSQIQYMNTVVSTYVTTNVSLIPPRSEQLVNFTGKAEMGGPFSYVYFFCTVPEILVHNIVIFMRTSVKISYIGLMTQSSLETHHYVDCGGNSTAI [TMEM106C]
solubility in G1/S (log2) (HeLa Kyoto [1]): 0.121
solubility change mitosis (log2) (HeLa Kyoto [2]): -0.29

MGTFCSVIKFENLQELKRLCHWGPIIALGVIAICSTMAMIDSVLWYWPLHTTGGSVNFIMLINWTVMILYNYFNAMFVGPGFVPLGWKPEISQDTMYLQYCKVCQAYKAPRSHHCRKCNRCVMKMDHHCPWINNCCGYQNHASFTLFLLLAPLGCIHAAFIFVMTMYTQLYHRLSFGWNTVKIDMSAARRDPLPIVPFGLAAFATTLFALGLALGTTIAVGMLFFIQMKIILRNKTSIESWIEEKAKDRIQYYQLDEVFVFPYDMGSRWRNFKQVFTWSGVPEGDGLEWPVREGCHQYSLTIEQLKQKADKRVRSVRYKVIEDYSGACCPLNKGIKTFFTSPCTEEPRIQLQKGEFILATRGLRYWLYGDKILDDSFIEGVSRIRGWFPRKCVEKCPCDAETDQAPEGEKKNR [ZDHHC6]
solubility in G1/S (log2) (HeLa Kyoto [1]): -0.0586
solubility change mitosis (log2) (HeLa Kyoto [2]): -0.272

MGTSLSPNDPWPLNPLSIQQTTLLLLLSVLATVHVGQRLLRQRRRQLRSAPPGPFAWPLIGNAAAVGQAAHLSFARLARRYGDVFQIRLGSCPIVVLNGERAIHQALVQQGSAFADRPAFASFRVVSGGRSMAFGHYSEHWKVQRRAAHSMMRNFFTRQPRSRQVLEGHVLSEARELVALLVRGSADGAFLDPRPLTVVAVANVMSAVCFGCRYSHDDPEFRELLSHNEEFGRTVGAGSLVDVMPWLQYFPNPVRTVFREFEQLNRNFSNFILDKFLRHCESLRPGAAPRDMMDAFILSAEKKAAGDSHGGGARLDLENVPATITDIFGASQDTLSTALQWLLLLFTRYPDVQTRVQAELDQVVGRDRLPCMGDQPNLPYVLAFLYEAMRFSSFVPVTIPHATTANTSVLGYHIPKDTVVFVNQWSVNHDPLKWPNPENFDPARFLDKDGLINKDLTSRVMIFSVGKRRCIGEELSKMQLFLFISILAHQCDFRANPNEPAKMNFSYGLTIKPKSFKVNVTLRESMELLDSAVQNLQAKETCQ [CYP1B1]
solubility in G1/S (log2) (HeLa Kyoto [1]): -0.0639
solubility change mitosis (log2) (HeLa Kyoto [2]): -0.171
